Measurements published in publication PMC5730761, “NS3 from Hepatitis C Virus Strain JFH-1 Is an Unusually Robust Helicase That Is Primed To Bind and Unwind Viral RNA”.

Assays:
gt1b NS3 [1] = molecular target: T1, gt1b NS3 (Hepatitis C virus genotype 1b strain N, UniProt Q9WPH5 1028-1658); test: filter binding; 3 mM Mg2+; (stopped-flow kon 3.5 uM-1 s-1, Fig 2C); 25 mM MOPS-NH4+ pH 6.5, 3 mM MgCl2, 30 mM NaCl, 1% glycerol, 2 mM DTT, 0.1% Triton X-100; filter binding 37 C, 0.5 nM RNA, Hill fit; stopped flow 25 C; details: protein: recombinant; tags: His6-SUMO removed (native N terminus); 5' Cy3 top strand via C3 amino linker (stopped flow); 3' overhang 6 nt on strand 1
JFH-1 NS3 [2] = molecular target: T2, JFH-1 NS3 (Hepatitis C virus genotype 2a strain …, UniProt Q99IB8 1031-1661); test: filter binding; 3 mM Mg2+; (stopped-flow kon 15 uM-1 s-1, Fig 2C); 25 mM MOPS-NH4+ pH 6.5, 3 mM MgCl2, 30 mM NaCl, 1% glycerol, 2 mM DTT, 0.1% Triton X-100; filter binding 37 C, 0.5 nM RNA, Hill fit; stopped flow 25 C; details: protein: recombinant; tags: His6-SUMO removed (native N terminus); 5' Cy3 top strand via C3 amino linker (stopped flow); 3' overhang 6 nt on strand 1
JFH-1 NS3 [3] = molecular target: T2, JFH-1 NS3; test: filter binding; 3 mM Mg2+; legend names NS3-4A; 25 mM MOPS-NH4+ pH 6.5, 3 mM MgCl2, 30 mM NaCl, 1% glycerol, 2 mM DTT, 0.1% Triton X-100; filter binding 37 C, 0.5 nM RNA, Hill fit; stopped flow 25 C; details: protein: recombinant; tags: His6-SUMO removed (native N terminus); label: 5'-32P
gt1b NS3 [4] = molecular target: T1, gt1b NS3; test: as above; details: protein: recombinant; tags: His6-SUMO removed (native N terminus); label: 5'-32P
gt1b NS3 [5] = molecular target: T1, gt1b NS3; test: filter binding; 3 mM Mg2+; (stopped-flow kon 13 uM-1 s-1, Fig 2A); 25 mM MOPS-NH4+ pH 6.5, 3 mM MgCl2, 30 mM NaCl, 1% glycerol, 2 mM DTT, 0.1% Triton X-100; filter binding 37 C, 0.5 nM RNA, Hill fit; stopped flow 25 C; details: protein: recombinant; tags: His6-SUMO removed (native N terminus); 5' Cy3 top strand via C3 amino linker (stopped flow); 3' overhang 18 nt on strand 1
JFH-1 NS3 [6] = molecular target: T2, JFH-1 NS3; test: filter binding; 3 mM Mg2+; (stopped-flow kon 59 uM-1 s-1, Fig 2A); 25 mM MOPS-NH4+ pH 6.5, 3 mM MgCl2, 30 mM NaCl, 1% glycerol, 2 mM DTT, 0.1% Triton X-100; filter binding 37 C, 0.5 nM RNA, Hill fit; stopped flow 25 C; details: protein: recombinant; tags: His6-SUMO removed (native N terminus); 5' Cy3 top strand via C3 amino linker (stopped flow); 3' overhang 18 nt on strand 1
gt1b NS3 [7] = molecular target: T1, gt1b NS3; test: filter binding; 3 mM Mg2+; (stopped-flow kon 9.9 uM-1 s-1, Fig 2B); 25 mM MOPS-NH4+ pH 6.5, 3 mM MgCl2, 30 mM NaCl, 1% glycerol, 2 mM DTT, 0.1% Triton X-100; filter binding 37 C, 0.5 nM RNA, Hill fit; stopped flow 25 C; details: protein: recombinant; tags: His6-SUMO removed (native N terminus); 5' Cy3 top strand via C3 amino linker (stopped flow); 3' overhang 12 nt on strand 1
JFH-1 NS3 [8] = molecular target: T2, JFH-1 NS3; test: filter binding; 3 mM Mg2+; (stopped-flow kon 69 uM-1 s-1, Fig 2B); 25 mM MOPS-NH4+ pH 6.5, 3 mM MgCl2, 30 mM NaCl, 1% glycerol, 2 mM DTT, 0.1% Triton X-100; filter binding 37 C, 0.5 nM RNA, Hill fit; stopped flow 25 C; details: protein: recombinant; tags: His6-SUMO removed (native N terminus); 5' Cy3 top strand via C3 amino linker (stopped flow); 3' overhang 12 nt on strand 1

B1: 12bp/6-OH (dsRNA)
RNA 1: CGGCAGCGAGGCAGGACA
RNA 2: GCCUCGCUGCCG
Kd (gt1b NS3 [1]): 60.4 ± 4.38 nM | Kd (JFH-1 NS3 [2]): 14.9 ± 0.52 nM

CUGUGGCAUGUCCUAGCGUCGUAUCGAUCUGGUC (ssRNA) [ssT34]
Kd (JFH-1 NS3 [3]): 8.36 ± 0.29 nM | Kd (gt1b NS3 [4]): 7.56 ± 0.33 nM

B2: 12bp/18-OH (dsRNA)
RNA 1: CGGCAGCGAGGCAGAGGAGCAGAGGGAGCA
RNA 2: GCCUCGCUGCCG
Kd (gt1b NS3 [5]): 7.25 ± 0.17 nM | Kd (JFH-1 NS3 [6]): 6.56 ± 0.23 nM

B3: 12bp/12-OH (dsRNA)
RNA 1: CGGCAGCGAGGCAGAGGAGCAGCA
RNA 2: GCCUCGCUGCCG
Kd (gt1b NS3 [7]): 15.7 ± 0.61 nM | Kd (JFH-1 NS3 [8]): 7.69 ± 0.21 nM
